Test results: the supplement of paper PMC12458215
± gives the uncertainty stated by the source.

Tested on: HEK293T
Assay: plasma membrane surface immunostaining intensity (anti-HA, deep receptor scanning) (arbitrary fluorescence units); higher = higher plasma membrane expression

**Q.** How did the “plasma membrane surface immunostaining intensity” value (GPCR class: A) turn out when “MPNNSTALSLANVTYITMEIFIGLCAIVGNVLVICVVKLNPSLQTTTFYFIVSLALADIAVGVLVMPLAIVVSLGITIHFYSCLFMTCLLLIFTHASIMSLLAIAVDRYLRVKLTVRYKRVTTHRRIWLALGLCWLVSFLVGLTPMFGWNMKLTSEYHRNVTFLSCQFVSVMRMDYMVYFSFLTWIFIPLVVMCAIYLDIFYIIRNKLSLNLSNSKETGAFYGREFKTAKSLFLVLFLFALSWLPLSIINCIIYFNGEVPQLVLYMGILLSHANSMMNPIVYAYKIKKFKETYLLILKACVVCHPSDSLDTSIEKNSE [ADORA3]” was run?
**A.** The value was 5830 ± 110.

**Q.** Which “plasma membrane surface immunostaining intensity” value (GPCR class: A (Olfactory)) does the source give for “MANITRMANHTGKLDFILMGLFRRSKHPALLSVVIFVVFLKALSGNAVLILLIHCDAHLHSPMYFFISQLSLMDMAYISVTVPKMLLDQVMGVNKVSAPECGMQMFLYLTLAGSEFFLLATMAYDRYVAICHPLRYPVLMNHRVCLFLASGCWFLGSVDGFMLTPITMSFPFCRSWEIHHFFCEVPAVTILSCSDTSLYETLMYLCCVLMLLIPVTIISSSYLLILLTVHRMNSAEGRKKAFATCSSHLTVVILFYGAAVYTYMLPSSYHTPEKDMMVSVFYTILTPVLNPLIYSLRNKDVMGALKKMLTVRFVL [OR2T5]” here?
**A.** Its value is 121 ± 14.

**Q.** How did the “plasma membrane surface immunostaining intensity” value (GPCR class: A (Olfactory)) turn out when “MTEFHLQSQMPSIRLIFRRLSLGRIKPSQSPRCSTSFMVVPSFSIAEHWRRMKGANLSQGMEFELLGLTTDPQLQRLLFVVFLGMYTATLLGNLVMFLLIHVSATLHTPMYSLLKSLSFLDFCYSSTVVPQTLVNFLAKRKVISYFGCMTQMFFYAGFATSECYLIAAMAYDRYAAICNPLLYSTIMSPEVCASLIVGSYSAGFLNSLIHTGCIFSLKFCGAHVVTHFFCDGPPILSLSCVDTSLCEILLFIFAGFNLLSCTLTILISYFLILNTILKMSSAQGRFKAFSTCASHLTAICLFFGTTLFMYLRPRSSYSLTQDRTVAVIYTVVIPVLNPLMYSLRNKDVKKALIKVWGRKTME [OR5AU1]” was run?
**A.** Its value is 419 ± 110.

**Q.** How did the “plasma membrane surface immunostaining intensity” value (GPCR class: A) turn out when “MRTLNTSAMDGTGLVVERDFSVRILTACFLSLLILSTLLGNTLVCAAVIRFRHLRSKVTNFFVISLAVSDLLVAVLVMPWKAVAEIAGFWPFGSFCNIWVAFDIMCSTASILNLCVISVDRYWAISSPFRYERKMTPKAAFILISVAWTLSVLISFIPVQLSWHKAKPTSPSDGNATSLAETIDNCDSSLSRTYAISSSVISFYIPVAIMIVTYTRIYRIAQKQIRRIAALERAAVHAKNCQTTTGNGKPVECSQPESSFKMSFKRETKVLKTLSVIMGVFVCCWLPFFILNCILPFCGSGETQPFCIDSNTFDVFVWFGWANSSLNPIIYAFNADFRKAFSTLLGCYRLCPATNNAIETVSINNNGAAMFSSHHEPRGSISKECNLVYLIPHAVGSSEDLKKEEAAGIARPLEKLSPALSVILDYDTDVSLEKIQPITQNGQHPT [DRD1]” was run?
**A.** Its value is 1460 ± 310.

**Q.** Which “plasma membrane surface immunostaining intensity” value (GPCR class: A) does the source give for “MNPDLDTGHNTSAPAHWGELKNANFTGPNQTSSNSTLPQLDITRAISVGLVLGAFILFAIVGNILVILSVACNRHLRTPTNYFIVNLAMADLLLSFTVLPFSAALEVLGYWVLGRIFCDIWAAVDVLCCTASILSLCAISIDRYIGVRYSLQYPTLVTRRKAILALLSVWVLSTVISIGPLLGWKEPAPNDDKECGVTEEPFYALFSSLGSFYIPLAVILVMYCRVYIVAKRTTKNLEAGVMKEMSNSKELTLRIHSKNFHEDTLSSTKAKGHNPRSSIAVKLFKFSREKKAAKTLGIVVGMFILCWLPFFIALPLGSLFSTLKPPDAVFKVVFWLGYFNSCLNPIIYPCSSKEFKRAFVRILGCQCRGRGRRRRRRRRRLGGCAYTYRPWTRGGSLERSQSRKDSLDDSGSCLSGSQRTLPSASPSPGYLGRGAPPPVELCAFPEWKAPGALLSLPAPEPPGRRGRHDSGPLFTFKLLTEPESPGTDGGASNGGCEAAADVANGQPGFKSNMPLAPGQF [ADRA1B]” here?
**A.** The value was 6200 ± 240.

**Q.** Which “plasma membrane surface immunostaining intensity” value (GPCR class: B) does the source give for “MDLKTVLSLPRYPGEFLHPVVYACTAVMLLCLLASFVTYIVHQSAIRISRKGRHTLLNFCFHAALTFTVFAGGINRTKYPILCQAVGIVLHYSTLSTMLWIGVTARNIYKQVTKKAPLCLDTDQPPYPRQPLLRFYLVSGGVPFIICGVTAATNIRNYGTEDEDTAYCWMAWEPSLGAFYGPAAIITLVTCVYFLGTYVQLRRHPGRRYELRTQPEEQRRLATPEGGRGIRPGTPPAHDAPGASVLQNEHSFQAQLRAAAFTLFLFTATWAFGALAVSQGHFLDMVFSCLYGAFCVTLGLFVLIHHCAKREDVWQCWWACCPPRKDAHPALDANGAALGRAACLHSPGLGQPRGFAHPPGPCKMTNLQAAQGHASCLSPATPCCAKMHCEPLTADEAHVHLQEEGAFGHDPHLHGCLQGRTKPPYFSRHPAEEPEYAYHIPSSLDGSPRSSRTDSPPSSLDGPAGTHTLACCTQGDPFPMVTQPEGSDGSPALYSCPTQPGREAALGPGHLEMLRRTQSLPFGGPSQNGLPKGKLLEGLPFGTDGTGNIRTGPWKNETTV [ADGRA1]” here?
**A.** Its value is 2640 ± 630.

**Q.** “MAETSALPTGFGELEVLAVGMVLLVEALSGLSLNTLTIFSFCKTPELRTPCHLLVLSLALADSGISLNALVAATSSLLRRWPYGSDGCQAHGFQGFVTALASICSSAAIAWGRYHHYCTRSQLAWNSAVSLVLFVWLSSAFWAALPLLGWGHYDYEPLGTCCTLDYSKGDRNFTSFLFTMSFFNFAMPLFITITSYSLMEQKLGKSGHLQVNTTLPARTLLLGWGPYAILYLYAVIADVTSISPKLQMVPALIAKMVPTINAINYALGNEMVCRGIWQCLSPQKREKDRTK [RGR]” was tested. Which “plasma membrane surface immunostaining intensity” value (GPCR class: A) did it give?
**A.** Its value is 125 ± 16.

**Q.** For “MGTDNQTWVSEFILLGLSSDWDTRVSLFVLFLVMYVVTVLGNCLIVLLIRLDSRLHTPMYFFLTNLSLVDVSYATSVVPQLLAHFLAEHKAIPFQSCAAQLFFSLALGGIEFVLLAVMAYDRYVAVCDALRYSAIMHGGLCARLAITSWVSGFISSPVQTAITFQLPMCRNKFIDHISCELLAVVRLACVDTSSNEVTIMVSSIVLLMTPFCLVLLSYIQIISTILKIQSREGRKKAFHTCASHLTVVALCYGVAIFTYIQPHSSPSVLQEKLFSVFYAILTPMLNPMIYSLRNKEVKGAWQKLLWKFSGLTSKLAT [OR2F1]”, which “plasma membrane surface immunostaining intensity” value (GPCR class: A (Olfactory)) is on record?
**A.** Its value is 181 ± 74.

**Q.** “MEMFTFLLTCIFLPLLRGHSLFTCEPITVPRCMKMAYNMTFFPNLMGHYDQSIAAVEMEHFLPLANLECSPNIETFLCKAFVPTCIEQIHVVPPCRKLCEKVYSDCKKLIDTFGIRWPEELECDRLQYCDETVPVTFDPHTEFLGPQKKTEQVQRDIGFWCPRHLKTSGGQGYKFLGIDQCAPPCPNMYFKSDELEFAKSFIGTVSIFCLCATLFTFLTFLIDVRRFRYPERPIIYYSVCYSIVSLMYFIGFLLGDSTACNKADEKLELGDTVVLGSQNKACTVLFMLLYFFTMAGTVWWVILTITWFLAAGRKWSCEAIEQKAVWFHAVAWGTPGFLTVMLLAMNKVEGDNISGVCFVGLYDLDASRYFVLLPLCLCVFVGLSLLLAGIISLNHVRQVIQHDGRNQEKLKKFMIRIGVFSGLYLVPLVTLLGCYVYEQVNRITWEITWVSDHCRQYHIPCPYQAKAKARPELALFMIKYLMTLIVGISAVFWVGSKKTCTEWAGFFKRNRKRDPISESRRVLQESCEFFLKHNSKVKHKKKHYKPSSHKLKVISKSMGTSTGATANHGTSAVAITSHDYLGQETLTEIQTSPETSMREVKADGASTPRLREQDCGEPASPAASISRLSGEQVDGKGQAGSVSESARSEGRISPKSDITDTGLAQSNNLQVPSSSEPSSLKGSTSLLVHPVSGVRKEQGGGCHSDT [FZD6]” was tested. Which “plasma membrane surface immunostaining intensity” value (GPCR class: F) did it give?
**A.** Its value is 329 ± 75.

**Q.** For “MPPSISAFQAAYIGIEVLIALVSVPGNVLVIWAVKVNQALRDATFCFIVSLAVADVAVGALVIPLAILINIGPQTYFHTCLMVACPVLILTQSSILALLAIAVDRYLRVKIPLRYKMVVTPRRAAVAIAGCWILSFVVGLTPMFGWNNLSAVERAWAANGSMGEPVIKCEFEKVISMEYMVYFNFFVWVLPPLLLMVLIYLEVFYLIRKQLNKKVSASSGDPQKYYGKELKIAKSLALILFLFALSWLPLHILNCITLFCPSCHKPSILTYIAIFLTHGNSAMNPIVYAFRIQKFRVTFLKIWNDHFRCQPAPPIDEDLPEERPDD [ADORA1]”, which “plasma membrane surface immunostaining intensity” value (GPCR class: A) is on record?
**A.** Its value is 6412 ± 62.

**Q.** “MFGLFGLWRTFDSVVFYLTLIVGLGGPVGNGLVLWNLGFRIKKGPFSIYLLHLAAADFLFLSCRVGFSVAQAALGAQDTLYFVLTFLWFAVGLWLLAAFSVERCLSDLFPACYQGCRPRHASAVLCALVWTPTLPAVPLPANACGLLRNSACPLVCPRYHVASVTWFLVLARVAWTAGVVLFVWVTCCSTRPRPRLYGIVLGALLLLFFCGLPSVFYWSLQPLLNFLLPVFSPLATLLACVNSSSKPLIYSGLGRQPGKREPLRSVLRRALGEGAELGARGQSLPMGLL [MRGPRG]” was tested. Which “plasma membrane surface immunostaining intensity” value (GPCR class: A) did it give?
**A.** The value was 115 ± 15.

**Q.** With “MDRRMWGAHVFCVLSPLPTVLGHMHPECDFITQLREDESACLQAAEEMPNTTLGCPATWDGLLCWPTAGSGEWVTLPCPDFFSHFSSESGAVKRDCTITGWSEPFPPYPVACPVPLELLAEEESYFSTVKIIYTVGHSISIVALFVAITILVALRRLHCPRNYVHTQLFTTFILKAGAVFLKDAALFHSDDTDHCSFSTVLCKVSVAASHFATMTNFSWLLAEAVYLNCLLASTSPSSRRAFWWLVLAGWGLPVLFTGTWVSCKLAFEDIACWDLDDTSPYWWIIKGPIVLSVGVNFGLFLNIIRILVRKLEPAQGSLHTQSQYWRLSKSTLFLIPLFGIHYIIFNFLPDNAGLGIRLPLELGLGSFQGFIVAILYCFLNQEVRTEISRKWHGHDPELLPAWRTRAKWTTPSRSAAKVLTSMC [GHRHR]” as the sequence, how does the “plasma membrane surface immunostaining intensity” value (GPCR class: B) read?
**A.** The value was 108 ± 5.4.

**Q.** With “MDLPPQLSFGLYVAAFALGFPLNVLAIRGATAHARLRLTPSLVYALNLGCSDLLLTVSLPLKAVEALASGAWPLPASLCPVFAVAHFFPLYAGGGFLAALSAGRYLGAAFPLGYQAFRRPCYSWGVCAAIWALVLCHLGLVFGLEAPGGWLDHSNTSLGINTPVNGSPVCLEAWDPASAGPARFSLSLLLFFLPLAITAFCYVGCLRALARSGLTHRRKLRAAWVAGGALLTLLLCVGPYNASNVASFLYPNLGGSWRKLGLITGAWSVVLNPLVTGYLGRGPGLKTVCAARTQGGKSQK [FFAR1]” as the sequence, how does the “plasma membrane surface immunostaining intensity” value (GPCR class: A) read?
**A.** The value was 265 ± 37.

**Q.** “MNTSAPPAVSPNITVLAPGKGPWQVAFIGITTGLLSLATVTGNLLVLISFKVNTELKTVNNYFLLSLACADLIIGTFSMNLYTTYLLMGHWALGTLACDLWLALDYVASNASVMNLLLISFDRYFSVTRPLSYRAKRTPRRAALMIGLAWLVSFVLWAPAILFWQYLVGERTVLAGQCYIQFLSQPIITFGTAMAAFYLPVTVMCTLYWRIYRETENRARELAALQGSETPGKGGGSSSSSERSQPGAEGSPETPPGRCCRCCRAPRLLQAYSWKEEEEEDEGSMESLTSSEGEEPGSEVVIKMPMVDPEAQAPTKQPPRSSPNTVKRPTKKGRDRAGKGQKPRGKEQLAKRKTFSLVKEKKAARTLSAILLAFILTWTPYNIMVLVSTFCKDCVPETLWELGYWLCYVNSTINPMCYALCNKAFRDTFRLLLLCRWDKRRWRKIPKRPGSVHRTPSRQC [CHRM1]” was tested. Which “plasma membrane surface immunostaining intensity” value (GPCR class: A) did it give?
**A.** The value was 2530 ± 130.

**Q.** “MEPRNQTSASQFILLGLSEKPEQETLLFSLFFCMYLVMVVGNLLIILAISIDSHLHTPMYFFLANLSLVDFCLATNTIPKMLVSLQTGSKAISYPCCLIQMYFFHFFGIVDSVIIAMMAYDRFVAICHPLHYAKIMSLRLCRLLVGALWAFSCFISLTHILLMARLVFCGSHEVPHYFCDLTPILRLSCTDTSVNRIFILIVAGMVIATPFVCILASYARILVAIMKVPSAGGRKKAFSTCSSHLSVVALFYGTTIGVYLCPSSVLTTVKEKASAVMYTAVTPMLNPFIYSLRNRDLKGALRKLVNRKITSSS [OR1M1]” was tested. Which “plasma membrane surface immunostaining intensity” value (GPCR class: A (Olfactory)) did it give?
**A.** Its value is 130 ± 31.
